Biological target: T1, recombinant human αvβ3 (human, UniProt P06756 31-992; P05106 27-718)
T1 construct: integrin αv, human; integrin β3, human; also called soluble αvβ3; recombinant αvβ3; source: bought: Calbiochem (Merck)
Experiment: ELISA; solid-phase direct binding assay: 96-well plates coated overnight with 10 μg/ml β43–63 or 0.5 μg/ml vitronectin, blocked with 5% BSA in PBS; recombinant αvβ3 incubated 1.5 h; detected with anti-αvβ3 antibody, anti-mouse-HRP and OPD, read at 450 nm; nonspecific binding to plastic subtracted
Details: both partners purified

T1 sequence (P06756 31-992, chain 1 of 2): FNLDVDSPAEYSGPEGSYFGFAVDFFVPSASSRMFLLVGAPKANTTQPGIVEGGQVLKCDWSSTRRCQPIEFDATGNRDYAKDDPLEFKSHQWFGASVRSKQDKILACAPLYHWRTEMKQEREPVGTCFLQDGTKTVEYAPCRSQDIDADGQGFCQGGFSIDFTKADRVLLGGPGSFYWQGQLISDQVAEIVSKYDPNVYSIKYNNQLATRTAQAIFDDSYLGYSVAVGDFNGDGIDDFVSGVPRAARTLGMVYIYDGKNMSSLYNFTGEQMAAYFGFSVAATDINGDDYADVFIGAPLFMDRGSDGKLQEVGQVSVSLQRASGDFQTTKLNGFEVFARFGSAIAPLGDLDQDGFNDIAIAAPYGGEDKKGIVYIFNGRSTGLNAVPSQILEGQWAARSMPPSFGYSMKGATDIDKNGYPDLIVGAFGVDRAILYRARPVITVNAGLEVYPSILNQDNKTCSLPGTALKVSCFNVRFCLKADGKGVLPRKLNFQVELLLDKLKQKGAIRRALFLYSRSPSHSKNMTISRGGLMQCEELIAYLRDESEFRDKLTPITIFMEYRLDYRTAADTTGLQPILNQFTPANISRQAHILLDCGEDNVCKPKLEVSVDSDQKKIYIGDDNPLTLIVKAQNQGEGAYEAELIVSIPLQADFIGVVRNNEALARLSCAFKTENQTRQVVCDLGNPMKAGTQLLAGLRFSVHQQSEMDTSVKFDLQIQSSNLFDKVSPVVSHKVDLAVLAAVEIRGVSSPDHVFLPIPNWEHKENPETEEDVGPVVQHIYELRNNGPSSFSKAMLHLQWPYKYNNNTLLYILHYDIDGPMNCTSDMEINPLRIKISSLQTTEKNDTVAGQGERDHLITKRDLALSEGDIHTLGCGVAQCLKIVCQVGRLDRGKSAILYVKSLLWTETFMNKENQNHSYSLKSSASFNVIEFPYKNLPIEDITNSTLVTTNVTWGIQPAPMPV
T1 sequence (P05106 27-718, chain 2 of 2): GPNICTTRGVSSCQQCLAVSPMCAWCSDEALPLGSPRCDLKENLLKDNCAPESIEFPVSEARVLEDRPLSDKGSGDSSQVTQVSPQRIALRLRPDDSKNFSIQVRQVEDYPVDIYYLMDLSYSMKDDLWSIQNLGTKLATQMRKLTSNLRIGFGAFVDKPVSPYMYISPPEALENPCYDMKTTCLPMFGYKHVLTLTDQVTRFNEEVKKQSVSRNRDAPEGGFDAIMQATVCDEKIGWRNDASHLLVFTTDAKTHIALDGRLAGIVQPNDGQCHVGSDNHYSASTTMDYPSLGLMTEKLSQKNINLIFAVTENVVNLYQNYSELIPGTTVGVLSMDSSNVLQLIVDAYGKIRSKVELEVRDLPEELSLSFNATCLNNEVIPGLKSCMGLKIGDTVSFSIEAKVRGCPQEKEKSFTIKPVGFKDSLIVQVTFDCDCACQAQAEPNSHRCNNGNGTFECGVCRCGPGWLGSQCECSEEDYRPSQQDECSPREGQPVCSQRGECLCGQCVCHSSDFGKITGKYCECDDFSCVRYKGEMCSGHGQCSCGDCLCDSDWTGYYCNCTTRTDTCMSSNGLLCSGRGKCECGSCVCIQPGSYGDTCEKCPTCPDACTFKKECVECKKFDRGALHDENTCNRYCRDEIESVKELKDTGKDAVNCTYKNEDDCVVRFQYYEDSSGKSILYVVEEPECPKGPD

binding result: binds
B1: β43–63, 20-amino-acid peptide derived from the β chain of human fibrinogen E-fragment (peptide)
peptide: ARPAKAAATQKKVERKAPDA
notes: human fibrinogen β chain, N terminus of the β chain of FgnE, named amino acids 43–63; source: synthetic peptide (GenScript Corporation)

From publication PMC2822935, “A novel fragment derived from the β chain of human fibrinogen, β43–63, is a potent inhibitor of activated endothelial cells in vitro and in vivo” (British Journal of Cancer, 2010)
